# From paper PMC5114558 (2016)
# Values joined by “and” are separate entries in the source; they are usually repeats but may differ in a detail not shown here. Equal values may be shown once. Read-outs that look alike come from different tables or passages of the source. Non-standard residues stand in square brackets, D forms with d. No end group written: not given here. Me2a = asymmetric dimethyl (on arginine); pT = C[C@@H](OP(=O)(O)O)[C@H](N)C(=O)O
# T1: KDM4A-DTD N940A (human, UniProt O75164 895-1011, N940A)
# T1 sequence: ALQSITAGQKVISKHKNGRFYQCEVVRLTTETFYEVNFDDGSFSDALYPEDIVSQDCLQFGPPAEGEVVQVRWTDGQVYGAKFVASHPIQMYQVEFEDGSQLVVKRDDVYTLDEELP
# T2: KDM4A-DTD D945S (human, UniProt O75164 895-1011, D945S)
# T2 sequence: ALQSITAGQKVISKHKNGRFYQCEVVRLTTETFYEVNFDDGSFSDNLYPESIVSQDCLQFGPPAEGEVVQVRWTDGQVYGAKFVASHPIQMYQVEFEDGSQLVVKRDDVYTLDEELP
# T3: ING2-PHD
# T3 chain: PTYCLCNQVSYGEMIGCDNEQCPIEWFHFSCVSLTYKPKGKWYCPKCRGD
# T4: KDM4B-DTD N951M (Homo sapiens)
# T4 chain: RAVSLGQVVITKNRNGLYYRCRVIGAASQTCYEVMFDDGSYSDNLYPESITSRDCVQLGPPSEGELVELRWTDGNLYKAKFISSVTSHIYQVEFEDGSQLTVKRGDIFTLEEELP
# T5: KDM4B-DTD N951G (Homo sapiens)
# T5 chain: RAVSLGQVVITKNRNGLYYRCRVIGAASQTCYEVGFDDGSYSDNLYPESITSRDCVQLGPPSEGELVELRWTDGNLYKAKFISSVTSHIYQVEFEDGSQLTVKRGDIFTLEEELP
# B1: KDM4B double tudor domain (KDM4B-DTD), HaloTag-tagged, wild type (domain or fragment)
# chain: RAVSLGQVVITKNRNGLYYRCRVIGAASQTCYEVNFDDGSYSDNLYPESITSRDCVQLGPPSEGELVELRWTDGNLYKAKFISSVTSHIYQVEFEDGSQLTVKRGDIFTLEEELP
# B2: KDM4A-DTD N931D (domain or fragment)
# chain: ALQSITAGQKVISKHKNGRFYQCEVVRLTTETFYEVDFDDGSFSDNLYPEDIVSQDCLQFGPPAEGEVVQVRWTDGQVYGAKFVASHPIQMYQVEFEDGSQLVVKRDDVYTLDEELP
# B3: KDM4A-DTD triple mutant N931D/D939R/D945R (DRR) (domain or fragment)
# chain: ALQSITAGQKVISKHKNGRFYQCEVVRLTTETFYEVDFDDGSFSRNLYPERIVSQDCLQFGPPAEGEVVQVRWTDGQVYGAKFVASHPIQMYQVEFEDGSQLVVKRDDVYTLDEELP
# modifications: HaloTag-Alexa 660 ligand conjugated to the HaloTag in the far western
# B4: KDM4A double tudor domain (KDM4A-DTD), HaloTag-tagged, wild type (domain or fragment)
# chain: ALQSITAGQKVISKHKNGRFYQCEVVRLTTETFYEVNFDDGSFSDNLYPEDIVSQDCLQFGPPAEGEVVQVRWTDGQVYGAKFVASHPIQMYQVEFEDGSQLVVKRDDVYTLDEELP
# B5: KDM4C double tudor domain (KDM4C-DTD), HaloTag-tagged, wild type (domain or fragment)
# chain: KVISVGQTVITKHRNTRYYSCRVMAVTSQTFYEVMFDDGSFSRDTFPEDIVSRDCLKLGPPAEGEVVQVKWPDGKLYGAKYFGSNIAHMYQVEFEDGSQIAMKREDIYTLDEELP
# How the values were obtained:
# Assay in all cases: FP
# H3K9me3 [1] = target: H3K9me3
# H3K27me3 [2] = target: H3K27me3
# H3K9me3 [3] = target: H3K9me3; remark: listed apart in the source
# H3K27me3 [4] = target: H3K27me3; remark: listed apart in the source
# [5] = target: B1
# [6] = target: B5
# KDM4A-DTD N931D = target: B2
# [7] = target: B3
# [8] = target: B1
# [9] = target: B4
# [10] = target: B5
# KDM4A-DTD N940A = target: T1, KDM4A-DTD N940A
# KDM4A-DTD D945S = target: T2, KDM4A-DTD D945S
# ING2-PHD = target: T3, ING2-PHD
# KDM4B-DTD N951M = target: T4, KDM4B-DTD N951M
# KDM4B-DTD N951G = target: T5, KDM4B-DTD N951G
# KDM4B-DTD N960A = KDM4B-DTD N960A (human, UniProt O94953 917-1031, N960A)
# KDM4B-DTD N960A, sequence (O94953 917-1031 N960A): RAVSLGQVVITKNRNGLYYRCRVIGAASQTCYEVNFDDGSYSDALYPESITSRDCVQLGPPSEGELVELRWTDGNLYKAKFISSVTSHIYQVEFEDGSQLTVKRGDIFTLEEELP
# KDM4B-DTD S965D = KDM4B-DTD S965D (human, UniProt O94953 917-1031, S965D)
# KDM4B-DTD S965D, sequence (O94953 917-1031 S965D): as the sequence (O94953 917-1031 N960A) above, with A44N, S49D counted along it
# H3K27me3 [11] = target: H3K27me3; remark: listed apart in the source
# H3T3phK4me3 peptide = H3T3phK4me3 peptide (UniProt P68431, phosphothreonine at T3; trimethyl-lysine at K4)
binder,measurement,setting,value
B1,Kd,H3K9me3 [1],800 µM
same,Kd,H3K27me3 [2],140 µM
B2,Kd,H3K9me3 [3],83.3 µM
same,Kd,H3K27me3 [4],98.6 µM
"RKQLATK(Me)AARKSAPAT (also: fluorescein label, end not given here) [H3K23me1 peptide (monomethylated H3K23), fluorescein-labelled]",Kd,[5],155 µM
same,Kd,[6],520 µM
same,Kd,KDM4A-DTD N931D,31.1 µM
"ARKSTGGK(Me3)APRKQLATK (also: fluorescein label, end not given here) [H3K14me3 peptide, fluorescein-labelled]",Kd,[7],158 µM
same,Kd,[8],165 µM
same,Kd,[9],108 µM
same,Kd,[10],166 µM
"RKQLA[pT]K(Me3)AARKSAPAT (also: fluorescein label, end not given here) [H3T22phK23me3 peptide, fluorescein-labelled]",Kd,[5],130 µM and 259 µM
same,Kd,[6],507 µM
same,Kd,KDM4A-DTD N931D,18.7 µM
"ARTK(Me3)QTARKSTGGK (also: fluorescein label, end not given here) [H3K4me3 peptide, fluorescein-labelled]",Kd,KDM4A-DTD N940A,74.1 µM
same,Kd,KDM4A-DTD D945S,151 µM
same,Kd,ING2-PHD,5.8 µM
same,Kd,KDM4A-DTD N931D,2.7 µM
same,Kd,[7],370 µM
same,Kd,[9],2.7 µM
"RKQLATK(Me3)AARKSAPAT (also: fluorescein label, end not given here) [H3 (17-32) K23me3 peptide, fluorescein-labelled]",Kd,KDM4B-DTD N951M,41.4 µM
same,Kd,KDM4B-DTD N951G,32.6 µM
same,Kd,KDM4B-DTD N960A,107 µM
same,Kd,KDM4B-DTD S965D,16.4 µM
same,Kd,ING2-PHD,257 µM
same,Kd,[10],73.6 µM
B3,Kd,H3K27me3 [11],570 µM
"RKQLATK(Me3)AAR(Me2a)KSAPAT (also: fluorescein label, end not given here) [H3K23me3R26me2a peptide, fluorescein-labelled]",Kd,[5],53.1 µM
same,Kd,[6],43.7 µM
same,Kd,KDM4A-DTD N931D,6 µM
"RKQLATK(Me3)AAAKSAPAT (also: fluorescein label, end not given here) [H3K23me3R26A peptide, fluorescein-labelled]",Kd,[5],180 µM
same,Kd,[6],72.5 µM
same,Kd,KDM4A-DTD N931D,27.7 µM
B4,Kd,H3T3phK4me3 peptide,122 µM
same,Kd,H3K27me3 [2],122 µM
"RKQLATK(Me2)AARKSAPAT (also: fluorescein label, end not given here) [H3K23me2 peptide (dimethylated H3K23), fluorescein-labelled]",Kd,[5],35.3 µM
same,Kd,[6],180 µM
same,Kd,KDM4A-DTD N931D,2.6 µM
"AKRHRK(Me3)VLRDN (also: fluorescein label, end not given here) [H4K20me3 peptide, fluorescein-labelled]",Kd,[8],60 µM
same,Kd,[10],58.7 µM
B5,Kd,H3K27me3 [2],104 µM
